Results reported in patent US20230159589A1 (published 2023).
Square brackets hold non-standard residues; d marks the D form. Ends that are not written are not given here. F2Pmp = N[C@@H](Cc1ccc(C(F)(F)P(=O)(O)O)cc1)C(=O)O

T1: STEP32 WT (catalytic domain of protein tyrosine phosphatase STEP/PTPN5, aa 282-563, N-terminal 6xHis tag) (UniProt P54829 282-563)
T1 construct: Expressed from pLIC-SGC1-PTPN5 WT (Addgene 39166); also called catalytic active STEP32
T1 sequence: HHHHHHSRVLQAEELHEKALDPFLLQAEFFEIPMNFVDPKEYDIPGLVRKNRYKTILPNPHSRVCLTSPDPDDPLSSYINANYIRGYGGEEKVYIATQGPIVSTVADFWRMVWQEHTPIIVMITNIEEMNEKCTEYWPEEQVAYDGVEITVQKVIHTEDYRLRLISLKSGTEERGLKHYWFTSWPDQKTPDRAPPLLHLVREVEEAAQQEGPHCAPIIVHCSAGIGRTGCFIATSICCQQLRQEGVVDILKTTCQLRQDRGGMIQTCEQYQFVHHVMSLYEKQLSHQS


Tests used:
[1] = biological target: STEP32 C/S (catalytically inactive substrate-trapping mutant of the catalytic domain of protein tyrosine phosphatase STEP/PTPN5, aa 282-563, C496S, N-terminal 6xHis tag) (Homo sapiens (Human)) (UniProt P54829); experiment: SPR (value taken from Table S3)
[2] = biological target: STEP32 C/S (catalytically inactive substrate-trapping mutant of the catalytic domain of protein tyrosine phosphatase STEP/PTPN5, aa 282-563, C496S, N-terminal 6xHis tag) (Homo sapiens (Human)) (UniProt P54829); experiment: SPR (Biacore 3000), peptide immobilized, STEP32 C/S analyte, 1:1 Langmuir fit
[3] = biological target: STEP32 C/S (catalytically inactive substrate-trapping mutant of the catalytic domain of protein tyrosine phosphatase STEP/PTPN5, aa 282-563, C496S, N-terminal 6xHis tag) (Homo sapiens (Human)) (UniProt P54829); experiment: fluorescence polarization competition; displaces TAMRA-3Y-F2Pmp from STEP32 C/S
[4] = biological target: STEP32 C/S (catalytically inactive substrate-trapping mutant of the catalytic domain of protein tyrosine phosphatase STEP/PTPN5, aa 282-563, C496S, N-terminal 6xHis tag) (Homo sapiens (Human)) (UniProt P54829); experiment: SPR; reference p3Y
[5] = biological target: STEP32 C/S (catalytically inactive substrate-trapping mutant of the catalytic domain of protein tyrosine phosphatase STEP/PTPN5, aa 282-563, C496S, N-terminal 6xHis tag) (Homo sapiens (Human)) (UniProt P54829); experiment: fluorescence polarization competition; displaces TAM-3Y-F2Pmp from STEP32 C/S
[6] = biological target: STEP32 C/S (catalytically inactive substrate-trapping mutant of the catalytic domain of protein tyrosine phosphatase STEP/PTPN5, aa 282-563, C496S, N-terminal 6xHis tag) (Homo sapiens (Human)) (UniProt P54829); experiment: fluorescence polarization competition; column headed Kd, the text speaks of IC50 values in Table 3
[7] = biological target: STEP32 C/S (catalytically inactive substrate-trapping mutant of the catalytic domain of protein tyrosine phosphatase STEP/PTPN5, aa 282-563, C496S, N-terminal 6xHis tag) (Homo sapiens (Human)) (UniProt P54829); experiment: ligand efficiency derived from the binding data
[8] = biological target: STEP32 C/S (catalytically inactive substrate-trapping mutant of the catalytic domain of protein tyrosine phosphatase STEP/PTPN5, aa 282-563, C496S, N-terminal 6xHis tag) (Homo sapiens (Human)) (UniProt P54829); experiment: fluorescence polarization competition; reference EGYNVpY hexapeptide
[9] = biological target: STEP32 C/S (catalytically inactive substrate-trapping mutant of the catalytic domain of protein tyrosine phosphatase STEP/PTPN5, aa 282-563, C496S, N-terminal 6xHis tag) (Homo sapiens (Human)) (UniProt P54829); experiment: SPR, peptide immobilized, STEP32 C/S analyte
[10] = biological target: T1, STEP32 WT (catalytic domain of protein …); experiment: SPR (Biacore 3000), peptide immobilized, STEP32 WT analyte (per FIG. 7 legend), 1:1 Langmuir fit
Experimental: For kinetic interaction studies by SPR, each of the short phosphopeptides was covalently immobilized on a flow cell of a carboxymethylated dextran chip. […] The amino group of the spacer was used to perform the covalent binding of the ligands to the sensor.
(§1) For each kinetic experiment, at least five different protein concentrations ranging between 100 nM and 500 μM were used. […] The association and dissociation time was set to 5 min. After each interaction test, 2-4 cycles of regeneration were performed by injecting 1M NaCl in HBS-EP buffer (0.01 M HEPES pH 7.4, 0.15 M NaCl, 3 mM EDTA, 0.005% v/v Surfactant P20) for 2 min at a flow rate of 20 μl/min. HBS-EP buffer was used as a running buffer. All measurements were carried out at 25° C. The data obtained was processed with BIAevaluation 3.1 software using 1:1 Langmuir fitting model with drifting baseline (using “Kinetics Simultaneous Kd/Ka” module). Nonspecific signals were removed by subtraction of signals from the reference area.

[11] = biological target: T1, STEP32 WT (catalytic domain of protein …); experiment: SPR, peptide immobilized, STEP32 WT analyte (per FIG. 7 legend)
Experimental: as §1

Row | Molecule | Ka [2] [M⁻¹] | Kd [2] [µM] | koff [2] [s⁻¹] | Ki [3] [µM] | Ki [5] [µM] | IC50 [6] [µM] | further results
1 | p3Ysh-1 (PEG2-NVpYG) (peptide) | 38400 | 26 | 0.00252 | 4.99 |  |  | Kd [1]: 26 µM
2 | p3Ysh-2 (PEG2-YNVpYG) (peptide) | 253000 | 3.96 | 0.179 | 13.1 |  |  | fold higher Kd than p3Y [4]: 17 fold; Kd [1]: 3.96 µM; kon [2]: 45200 M⁻¹ s⁻¹
3 | p3Ysh-3 (PEG2-EGYNVpY) (peptide) | 1.88e+07 | 0.0531 | 0.00176 | 1.64 | 0.69 | 2.6 | fold lower Kd than p3Y [4]: 4 fold; fold smaller Kd than p3Y [4]: > 2 fold; Kd [1]: 0.06 µM; kon [2]: 33100 M⁻¹ s⁻¹; LE (ligand efficiency) [7]: 0.64
4 | p3Ysh-4 (PEG2-NSpYG) (peptide) |  |  |  | 13.7 |  |  | 
5 | p3Ysh-5 (PEG2-YVpYG) (peptide) |  |  |  | 5.34 |  |  | 
6 | p3Ysh-6 (PEG2-FGYNVpYG) (peptide) | 163000 | 6.13 | 0.11 | 6.96 |  |  | fold higher Kd than p3Y [4]: 6.4 fold; Kd [1]: 6.13 µM; kon [2]: 17900 M⁻¹ s⁻¹
7 | p3Ysh-7 (PEG2-FSpYG) (peptide) |  |  |  | 4.57 |  |  | 
8 | p-fin1 (GYNVpY) (peptide) |  |  |  |  | 1.9 | 8.01 | 
9 | p-fin2 (DGYNVpY) (peptide) |  |  |  |  | 1.85 | 7.15 | 
10 | p-fin3 (NGYNVpY) (peptide) |  |  |  |  | 2.16 | 8.84 | 
11 | p-fin4 (EGYNVpYE) (peptide) | 1.13e+07 | 0.0884 | 0.00692 |  | 0.36 | 1.86 | fold improvement of the inhibition constant over the original hexapeptide [8]: 2 fold; kon [2]: 78200 M⁻¹ s⁻¹; Kd [9]: 0.09 µM
12 | p-fin5 (EGYNVpYGD) (peptide) |  |  |  |  | 0.76 | 3.36 | 
13 | ATYKEGYNV[F2Pmp]G (also called p3Y-F2Pmp) [3Y-F2Pmp (ATYKEGYNV{F2Pmp}G)] |  |  |  |  |  |  | Ka [10]: 3.74e+06 M⁻¹; Kd [10]: 0.268 µM; koff [10]: 0.00656 s⁻¹; kon [10]: 24500 M⁻¹ s⁻¹; Kd [11]: 0.27 µM
14 | EGYNV[F2Pmp] (also called 3Ysh-F2Pmp) [3Ysh-3-F2Pmp (EGYNV{F2Pmp})] |  |  |  |  |  |  | Ka [10]: 4.12e+06 M⁻¹; Kd [10]: 0.242 µM; koff [10]: 0.00483 s⁻¹; kon [10]: 19900 M⁻¹ s⁻¹; Kd [11]: 0.24 µM
